For one substance, Kd results are on record in US20240252534A1.

Experiment [1] deals with Recombinant PSMA-His (sino biologicals) (UniProt Q04609). The experiment can be described thus: SPR, Biacore T200, pH 6; antibody captured on Protein A chip, PSMA-His as analyte, 1:1 Langmuir fit. (In general: In SPR one partner is held on a chip, and binding of the other changes the refractive index at the surface.)
The target is the same in experiment [2]. The experiment in a line: SPR, Biacore T200, pH 7; antibody captured on Protein A chip, PSMA-His as analyte, 1:1 Langmuir fit.
Experiment [3] shares this target. The experiment can be described thus: SPR, Biacore T200, pH 6.5; antibody captured on Protein A chip, PSMA-His as analyte, 1:1 Langmuir fit.
Experiment [4] has the same target. The experiment in a line: SPR, Biacore T200, pH 7.4; antibody captured on Protein A chip, PSMA-His as analyte, 1:1 Langmuir fit.

Recombinant PSMA-His (sino biologicals), sequence (Q04609 44-750 limits assumed): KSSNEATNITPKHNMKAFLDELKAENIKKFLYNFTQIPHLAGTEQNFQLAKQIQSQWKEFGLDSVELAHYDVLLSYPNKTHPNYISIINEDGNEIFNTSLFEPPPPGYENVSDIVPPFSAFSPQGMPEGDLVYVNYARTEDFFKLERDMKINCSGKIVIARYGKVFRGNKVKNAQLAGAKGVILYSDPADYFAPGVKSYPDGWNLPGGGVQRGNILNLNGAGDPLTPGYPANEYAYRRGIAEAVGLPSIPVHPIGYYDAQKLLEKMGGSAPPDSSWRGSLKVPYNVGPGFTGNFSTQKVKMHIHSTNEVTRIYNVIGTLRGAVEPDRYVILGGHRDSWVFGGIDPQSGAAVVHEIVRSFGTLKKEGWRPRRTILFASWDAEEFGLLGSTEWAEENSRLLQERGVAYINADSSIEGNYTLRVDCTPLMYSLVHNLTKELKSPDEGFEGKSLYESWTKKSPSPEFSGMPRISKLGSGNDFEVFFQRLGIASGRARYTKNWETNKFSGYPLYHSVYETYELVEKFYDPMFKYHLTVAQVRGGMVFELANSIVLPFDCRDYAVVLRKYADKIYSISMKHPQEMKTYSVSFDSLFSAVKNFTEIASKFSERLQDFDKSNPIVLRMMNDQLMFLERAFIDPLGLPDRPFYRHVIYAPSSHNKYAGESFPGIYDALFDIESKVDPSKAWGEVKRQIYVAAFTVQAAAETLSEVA

As to Anti-PSMA antibody J591 (UPenn), the Kd (commonly the free concentration of one partner at which half of the binding sites on the other are occupied at equilibrium, for simple one-to-one binding) is 0.551 nM in experiment [1], 2.54 nM in experiment [2], 0.984 nM in experiment [3] and 2.76 nM in experiment [4].
